{"source": "patent US20250388664A1", "about": "(BIOARCTIC, published 2025)", "binders": {"B1": {"name": "BA002 (bispecific antibody, human IgG1, kappa)", "light": "EIVLTQSPLSLSVTLGQSASISCRSSQSLLDSNGKTYLHWFILRPGQSPRRLIYLVSILDSGVPDRFSGSGSGTDFTLKISRVEAEDVGVYYCVQGTHFPFTFGSGTKLEIKRTVAAPSVFIFPPSDEQLKSGTASVVCLLNNFYPREAKVQWKVDNALQSGNSQESVTEQDSKDSTYSLSSTLTLSKADYEKHKVYACEVTHQGLSSPVTKSFNRGEC", "heavy 1": "not shown", "heavy 2": "EVQLVQSGAEVVKPGASVRLSCKASGYSFTGFTMNWVRQALGQGLEWMGLINPYNGVTTYNQKFKGRLTMTRDMSTRTVYMDLSSLTYEDTAVYYCTREGNWEGVYWGQGTLVTVSSASTKGPSVFPLAPSSKSTSGGTAALGCLVKDYFPEPVTVSWNSGALTSGVHTFPAVLQSSGLYSLSSVVTVPSSSLGTQTYICNVNHKPSNTKVDKKVEPKSCDKTHTCPPCPAPELLGGPSVFLFPPKPKDTLMISRTPEVTCVVVDVSHEDPEVKFNWYVDGVEVHNAKTKPREEQYNSTYRVVSVLTVLHQDWLNGKEYKCAVSNKALPAPIEKTISKAKGQPREPQVYTLPPCRDELTKNQVSLWCLVKGFYPSDIAVEWESNGQPENNYKTTPPVLDSDGSFFLYSKLTVDKSRWQQGNVFSCSVMHEALHNHYTQKSLSLSPGGGGGSGGGGSGGGGSGGGGSDIQMTQSPSSVSASVGDRVTITCKSSQSLLASTNQKNYLAWYQQKPGKAPKLLIYWASTRESGVPSRFSGSGSGTDFTLTISSLQPEDFATYYCQQYFIYPRTFGCGTKVEIKGGGGSGGGGSGGGGSGGGGSEVQLVQSGAEVKKPGSSVKVSCKASGYIFTDYNMDWVRQAPGQCLEWIGDINPDYDTTSYNEKFKGRATLTVDKSTSTAYMELSSLRSEDTAVYYCARGGYSGSSYYHPMDYWGQGTLVTVSS"}, "B2": {"name": "26D3 (antibody, V domains shown)", "VH": "EVQLQQFGVELVKPGASVKISCKASGYIFTDYNMDWVKQSHGKSLEWIGDINPDYDTTSYNEKFKGKATLTVDKSSSTAYMELRSLTSEDTAVYYCARGGYSGSSYYHPMDYWGQGTSVTVSS", "VL": "DIVMSQSPSSLAVSVGEKITMSCKSSQSLLYSTNQKNYLAWYQQKPGQSPELLIYWASTRESGVPDRFTGSGSGTDFTLTISNVRAEDLAVYYCQQYFIYPRTFGGGTKLEIK", "notes": "also called mouse antibody 26D3; clone 26D3"}, "B3": {"name": "H2L7-K12V/R83T (antibody, human IgG1, kappa)", "heavy": "not shown", "light": "B1 light", "notes": "VH variant of H2L7; VL and constant domains identical to H2L7"}}, "key": {"[1]": {"target": "T1, truncated hTfR1 of SEQ ID NO:122 (human, UniProt P02786 122-760)", "T1 construct": "also called human TfR1; Human TfR1", "T1 sequence (P02786 other isoform, or with tags, fused parts or gaps limits assumed)": "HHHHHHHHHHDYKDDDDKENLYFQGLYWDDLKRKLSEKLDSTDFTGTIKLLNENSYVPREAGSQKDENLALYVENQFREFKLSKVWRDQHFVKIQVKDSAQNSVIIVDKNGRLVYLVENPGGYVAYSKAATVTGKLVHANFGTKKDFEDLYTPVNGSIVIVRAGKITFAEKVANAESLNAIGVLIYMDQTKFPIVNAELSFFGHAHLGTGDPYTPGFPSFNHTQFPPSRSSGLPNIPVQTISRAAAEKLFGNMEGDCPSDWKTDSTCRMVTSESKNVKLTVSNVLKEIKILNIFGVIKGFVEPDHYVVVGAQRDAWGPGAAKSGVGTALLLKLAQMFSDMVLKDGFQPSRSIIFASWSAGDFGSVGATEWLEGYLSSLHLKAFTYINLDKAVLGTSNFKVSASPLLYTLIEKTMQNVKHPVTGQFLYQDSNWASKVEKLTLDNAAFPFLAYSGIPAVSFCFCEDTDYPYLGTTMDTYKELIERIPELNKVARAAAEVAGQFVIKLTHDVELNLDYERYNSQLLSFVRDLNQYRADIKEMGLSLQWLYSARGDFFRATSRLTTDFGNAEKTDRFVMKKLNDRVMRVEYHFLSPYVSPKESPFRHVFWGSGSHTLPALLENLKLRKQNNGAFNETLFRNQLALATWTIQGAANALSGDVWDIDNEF", "assay": "SPR, FLAG-captured TfR1, bispecific injected, 1:1 fit"}, "AβpE3-42 protofibrils [2]": {"target": "T2, AβpE3-42 protofibrils (UniProt P05067 674-713, pyroglutamate at position 3 (N-terminal residue))", "T2 construct": "range 3-42 (Aβ numbering); Soluble aggregates made from AβpE3-42 peptide, purified in the void peak of SEC; also called AβpE3-42 PF", "T2 sequence (P05067 674-713)": "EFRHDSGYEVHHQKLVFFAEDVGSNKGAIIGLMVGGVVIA", "assay": "inhibition ELISA, antigen titrated in solution, AβpE3-40 coat", "procedure": "(§1) The tested molecules were incubated at a fixed concentration (0.1 μg/ml) with titrating concentrations of the different AβpE3 antigens. After incubation for 45 min at 900 rpm to reach equilibrium, the samples were added to a blocked and washed ELISA plate with an AβpE3-40 coat (0.5 μM). The samples were incubated on the plate for 25 min without shaking followed by washing, incubation with detection antibody, another washing step and finally incubation with alkaline phosphatase substrate."}, "AβpE3-40 monomer [3]": {"target": "T3, AβpE3-40 monomer (UniProt P05067 674-711, pyroglutamate at position 3 (N-terminal residue))", "T3 construct": "range 3-40 (Aβ numbering); Synthetic peptide (Bachem/Anaspec), verified monomeric by SEC; also called monomeric AβpE3-40", "T3 sequence (P05067 674-711)": "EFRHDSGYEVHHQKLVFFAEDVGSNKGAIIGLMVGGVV", "assay": "inhibition ELISA, antigen titrated in solution, AβpE3-40 coat", "procedure": "as §1"}, "AβpE3-40 monomer [4]": {"target": "T3, AβpE3-40 monomer", "assay": "SPR, antibody immobilised, monomer injected, 1:1 fit", "procedure": "Single cycle kinetics with the binding molecules immobilized on a CM5 chip was used to measure binding to the AβpE3-40 monomer. For the measurements, 5 μg/ml of analyte binding molecule was immobilized on the chip. […] Regeneration of the surface between cycles was done by injecting 30 μl 3 M MgCl₂ (Cytiva, cat. No. 29234600). The binding data was fitted to a 1:1 interaction model."}, "[5]": {"target": "T4, h/m apical domain chimera (SEQ ID NO:112) (human/mouse chimera)", "T4 construct": "also called chimeric TfR1 consisting of human apical domain grafted on mouse TfR1 ectodomain", "T4 chain": "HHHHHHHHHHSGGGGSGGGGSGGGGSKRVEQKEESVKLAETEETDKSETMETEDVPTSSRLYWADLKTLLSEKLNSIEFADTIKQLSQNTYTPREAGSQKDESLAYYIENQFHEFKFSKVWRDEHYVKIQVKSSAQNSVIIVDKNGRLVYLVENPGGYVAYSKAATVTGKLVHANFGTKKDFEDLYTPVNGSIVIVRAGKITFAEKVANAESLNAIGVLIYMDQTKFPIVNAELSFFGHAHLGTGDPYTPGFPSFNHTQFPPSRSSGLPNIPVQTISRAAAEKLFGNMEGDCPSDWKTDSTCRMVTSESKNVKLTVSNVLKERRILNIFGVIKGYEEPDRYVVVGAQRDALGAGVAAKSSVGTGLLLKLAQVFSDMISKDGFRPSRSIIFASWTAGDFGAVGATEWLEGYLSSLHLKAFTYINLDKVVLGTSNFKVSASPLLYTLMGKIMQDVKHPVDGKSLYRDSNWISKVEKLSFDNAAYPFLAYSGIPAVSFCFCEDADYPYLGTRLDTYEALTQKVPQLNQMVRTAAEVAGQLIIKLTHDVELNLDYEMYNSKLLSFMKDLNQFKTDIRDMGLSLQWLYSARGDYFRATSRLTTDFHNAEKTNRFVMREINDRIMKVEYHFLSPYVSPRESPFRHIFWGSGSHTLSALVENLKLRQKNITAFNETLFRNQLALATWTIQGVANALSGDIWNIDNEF", "assay": "indirect ELISA: plate coated with 1 µg/ml h/m apical domain chimera, mouse IgG titrated, anti-mouse IgG-HRP; x axis printed as 'TfR (ng/ml)'", "procedure": "Plasma samples serially diluted from a starting dilution of 1/450 or hybridoma supernatants diluted 1/2 were added to the plates (50 μl/well; dilution buffer: PBS with 0.1% BSA and 0.05% TWEEN®-20) and incubated for 2 h at room temperature and then the plates were washed four times. […] After another wash (as above), 50 μl/well TMB substrate (K-Blue® Aqueous, Neogen) was added, and the reaction was stopped after 10-15 min with 50 μl/well of 0.5 M H₂SO₄. The optical density at 450 nm was read using a plate reader (Tecan). The endpoint titers were defined as the dilution above the average of the blank wells (background) plus 3 standard deviations of the blank wells.\nIn the ELISA experiment, human, mouse or three different chimeric TfR1 receptors were used to coat ELISA plates (FIGS. 30A-30E). The ELISA protocol was slightly modified as follows from the indirect ELISA described in Example 15. […] The coated plates were then blocked. Dilution series of mouse IgG of the analyzed antibodies were prepared in PBS and incubated on the ELISA plates. Unbound antibodies were then washed off before incubating wells with a HRP-conjugated secondary, anti-mouse-IgG for 1 h. Plates were then washed again before addition of HRP substrate TMB for development and detection of antibody binding to the wells. TMB development was stopped by adding 0.5 M H₂SO₄ to the wells and ELISA responses measured as the OD at 450 nm in an ELISA plate reader."}, "AβpE3-42 protofibrils [6]": {"target": "T2, AβpE3-42 protofibrils", "assay": "SPR, protofibrils immobilised, antibody injected, 1:1 fit, apparent; binding to AβpE3-42 protofibrils; KD in pM", "procedure": "(§2) Single cycle kinetics was also used to measure binding of the antibodies to AβpE3-42 protofibrils. […] Regeneration of the surface between cycles was done by injecting 30 μl 10 mM glycine-HCl pH 1.7. The binding data was fitted to a 1:1 interaction model.\n(§3) In all SPR experiments, 1×HBS-EP+ (Cytiva, cat. no. BR100669) was used to dilute antibodies and target antigens. Experiments were performed at 25° C.\n(§4) Affinity evaluation and KD determination by surface plasmon resonance: Binding interactions between antigens and antibodies were evaluated by SPR using a Biacore 8K instrument (Cytiva) according to standard procedures."}, "AβpE3-42 protofibrils [7]": {"target": "T2, AβpE3-42 protofibrils", "assay": "SPR, protofibrils immobilised, antibody injected, 1:1 fit, apparent", "procedure": "as §2, §3, §4"}, "AβpE3-40 monomer [8]": {"target": "T3, AβpE3-40 monomer", "assay": "SPR, antibody immobilised, monomer injected, 1:1 fit", "procedure": "Single cycle kinetics with the antibodies immobilized on a CM5 chip was used to measure the binding of the antibodies to the AβpE3-40 monomer. For the measurements, 5 μg/ml of analyte antibody was immobilized on the chip. […] Regeneration of the surface between cycles was done by injecting 30 μl 3 M MgCl₂. The binding data was fitted to a 1:1 interaction model.\nas §3, §4", "remark": "listed apart in the source"}, "AβpE3-28 monomer": {"target": "T5, AβpE3-28 monomer (UniProt P05067 674-699, pyroglutamate at position 3 (N-terminal residue))", "T5 construct": "range 3-28 (Aβ numbering)", "T5 sequence (P05067 674-699)": "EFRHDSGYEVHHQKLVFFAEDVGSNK", "assay": "inhibition ELISA, antigen titrated in solution, AβpE3-40 coat", "procedure": "(§5) The humanized antibodies were incubated at a fixed concentration (0.5 μg/ml) with titrating concentrations of the different Aβ antigens. After incubation for 45 min at 900 rpm to reach equilibrium, the antibody-Aβ samples were added to a blocked and washed ELISA plate with an AβpE3-40 coat (0.5 μM). The samples were incubated on the plate for 25 min without shaking followed by washing, incubation with detection antibody, another washing step and finally incubation with alkaline phosphatase substrate."}, "Aβ3-28 monomer": {"target": "T6, Aβ3-28 monomer (UniProt P05067 674-699)", "T6 construct": "range 3-28 (Aβ numbering)", "assay": "inhibition ELISA, antigen titrated in solution, AβpE3-40 coat", "procedure": "as §5"}, "AβpE3-42 protofibrils [9]": {"target": "T2, AβpE3-42 protofibrils", "assay": "inhibition ELISA, antigen titrated in solution, AβpE3-40 coat", "remark": "listed apart in the source"}, "Aβ1-40 monomer": {"target": "T7, Aβ1-40 monomer (UniProt P05067 672-711)", "T7 construct": "range 1-40 (Aβ numbering)", "T7 sequence (P05067 672-711)": "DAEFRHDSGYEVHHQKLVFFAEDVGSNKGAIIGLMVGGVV", "assay": "inhibition ELISA, antigen titrated in solution, AβpE3-40 coat"}, "AβpE3-40 monomer [10]": {"target": "T3, AβpE3-40 monomer", "assay": "inhibition ELISA, antigen titrated in solution, AβpE3-40 coat", "remark": "listed apart in the source"}, "Aβ1-42 protofibrils": {"target": "T8, Aβ1-42 protofibrils (UniProt P05067 672-713)", "T8 construct": "range 1-42 (Aβ numbering); Soluble aggregates made from Aβ1-42 monomer", "T8 sequence (P05067 672-713)": "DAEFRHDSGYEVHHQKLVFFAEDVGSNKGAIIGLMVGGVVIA", "assay": "inhibition ELISA, antigen titrated in solution, AβpE3-40 coat"}}, "note": "Where two headings read alike, the source gives them in different places.", "data": [{"binder": "B1", "values": [{"measurement": "Kd", "setting": "[1]", "value": 35.6, "unit": "nM"}, {"measurement": "koff", "setting": "[1]", "value": 0.0031, "unit": "s⁻¹"}, {"measurement": "kon", "setting": "[1]", "value": 87000, "unit": "M⁻¹ s⁻¹"}, {"measurement": "IC50", "setting": "AβpE3-42 protofibrils [2]", "value": 3.2, "unit": "nM"}, {"measurement": "IC50", "setting": "AβpE3-40 monomer [3]", "value": 0.8, "unit": "nM"}, {"measurement": "Kd", "setting": "AβpE3-40 monomer [4]", "value": 2.38, "unit": "nM"}, {"measurement": "koff", "setting": "AβpE3-40 monomer [4]", "value": 0.000127, "unit": "s⁻¹"}, {"measurement": "kon", "setting": "AβpE3-40 monomer [4]", "value": 53500, "unit": "M⁻¹ s⁻¹"}]}, {"binder": "B2", "values": [{"measurement": "binding result", "setting": "[5]", "value": "no binding (tested: about 600 ng/ml)"}]}, {"binder": "B3", "values": [{"measurement": "Kd", "setting": "AβpE3-42 protofibrils [6]", "value": 0.2, "unit": "nM"}, {"measurement": "koff", "setting": "AβpE3-42 protofibrils [7]", "value": "1.62e-05", "unit": "s⁻¹"}, {"measurement": "kon", "setting": "AβpE3-42 protofibrils [7]", "value": 81100, "unit": "M⁻¹ s⁻¹"}, {"measurement": "Kd", "setting": "AβpE3-40 monomer [8]", "value": 2.2, "unit": "nM"}, {"measurement": "koff", "setting": "AβpE3-40 monomer [8]", "value": 0.00012, "unit": "s⁻¹"}, {"measurement": "kon", "setting": "AβpE3-40 monomer [8]", "value": 56200, "unit": "M⁻¹ s⁻¹"}, {"measurement": "IC50", "setting": "AβpE3-28 monomer", "value": 5, "unit": "nM"}, {"measurement": "IC50", "setting": "Aβ3-28 monomer", "value": 2260, "unit": "nM"}, {"measurement": "IC50", "setting": "AβpE3-42 protofibrils [9]", "value": 3.71, "unit": "nM"}, {"measurement": "IC50", "setting": "Aβ1-40 monomer", "value": "> 500", "unit": "nM"}, {"measurement": "IC50", "setting": "AβpE3-40 monomer [10]", "value": 2.27, "unit": "nM"}, {"measurement": "IC50", "setting": "Aβ1-42 protofibrils", "value": "> 132", "unit": "nM"}]}]}
